Results published in paper PMC3024247.

Target: amyloid β-peptide (human, 1-40) (human)
Experiment: SPR; Biacore 3000; Aβ immobilised by amine coupling on a CM5 chip; analytes injected in 10 mM HEPES-NaOH pH 7.4, 0.15 M NaCl, 0.0005% Tween 20; 25°C; hMK 0.62-20 μg/ml for the constant, all other analytes 5 μg/ml

B1: human midkine (natural protein)
chain: VAKKKDKVKKGGPGSECAEWAWGPCTPSSKDCGVGFREGTCGAQTQRIRCRVPCNWKKEFGADCKYKFENWGACDGGTGTKVRQGTLKKARYNAQCQETIRVTKPCTPKTKAKAKAKKGKGKD
Kd: 160 nM
